{"source": "the Human Domainome abundance scans (Beltran et al. 2025)", "parents": {"B1": {"name": "WW domain-binding protein 4, residues 8 to 43; numbered along this chain, O75554 (parent)", "chain": "QPKKFCDYCKCWIADNRPSVEFHERGKNHKENVAKR"}}, "note": "± gives the uncertainty stated by the source."}
{"variants_of": "B1", "assay": "abundance fitness (aPCA) (normalised: wild type 0, dead -1); higher = more abundant; growth selection in yeast, the domain comes from the species named", "settings": "Homo sapiens"}
{"variant": "QPKKFCDYCKFWIADNRPSVEFHERGKNHKENVAKR", "abundance fitness": "-0.417 ± 0.14"}
{"variant": "QPKKFCDYCKCWIADNRPSVEFSERGKNHKENVAKR", "abundance fitness": "-0.549 ± 0.076"}
{"variant": "QPKKFCDYCKCWIADNRPSVEFDERGKNHKENVAKR", "abundance fitness": "-0.387 ± 0.13"}
{"variant": "QPKKFCDYCKCWIADNRPSVEFFERGKNHKENVAKR", "abundance fitness": "-0.633 ± 0.4"}
{"variant": "QPKKFCDYCKCWIADNRPSVEFVERGKNHKENVAKR", "abundance fitness": "-0.895 ± 0.094"}
{"variant": "QPKKFCDYCCCWIADNRPSVEFHERGKNHKENVAKR", "abundance fitness": "-0.325 ± 0.092"}
{"variant": "QPKKFCDYCNCWIADNRPSVEFHERGKNHKENVAKR", "abundance fitness": "-0.149 ± 0.16"}
{"variant": "QPKKFCDYCKCWIAKNRPSVEFHERGKNHKENVAKR", "abundance fitness": "-0.367 ± 0.092"}
{"variant": "QPKKFCDYCKCWIAANRPSVEFHERGKNHKENVAKR", "abundance fitness": "-0.145 ± 0.07"}
{"variant": "QPKKFCDYCKCWIADNRPSVAFHERGKNHKENVAKR", "abundance fitness": "-0.163 ± 0.063"}
{"variant": "QPKKFCDYCKCWIADNRPSVVFHERGKNHKENVAKR", "abundance fitness": "-0.289 ± 0.062"}
{"variant": "QPKKFCDYCKCWIADNRISVEFHERGKNHKENVAKR", "abundance fitness": "-0.349 ± 0.12"}
{"variant": "QPKKFCDYCKCWIADNRMSVEFHERGKNHKENVAKR", "abundance fitness": "-0.002 ± 0.073"}
{"variant": "QPKKFCDYCKCWIADNRWSVEFHERGKNHKENVAKR", "abundance fitness": "-0.522 ± 0.092"}
{"variant": "QPKKFCDYCKCWIADNRNSVEFHERGKNHKENVAKR", "abundance fitness": "-0.177 ± 0.1"}
{"variant": "QPKKFCDYCKCWIADNRCSVEFHERGKNHKENVAKR", "abundance fitness": "-0.113 ± 0.086"}
{"variant": "QPKKFCDYCKCWVADNRPSVEFHERGKNHKENVAKR", "abundance fitness": "-0.089 ± 0.12"}
{"variant": "QPKKFCDYCKCWQADNRPSVEFHERGKNHKENVAKR", "abundance fitness": "-0.529 ± 0.085"}
{"variant": "QPKKFCDYCKCWYADNRPSVEFHERGKNHKENVAKR", "abundance fitness": "0.334 ± 0.19"}
{"variant": "QPKKQCDYCKCWIADNRPSVEFHERGKNHKENVAKR", "abundance fitness": "-0.328 ± 0.084"}
{"variant": "QPKKYCDYCKCWIADNRPSVEFHERGKNHKENVAKR", "abundance fitness": "-0.087 ± 0.17"}
{"variant": "QPKKMCDYCKCWIADNRPSVEFHERGKNHKENVAKR", "abundance fitness": "-0.085 ± 0.18"}
{"variant": "QPKKECDYCKCWIADNRPSVEFHERGKNHKENVAKR", "abundance fitness": "-0.356 ± 0.072"}
{"variant": "QPKKFCDYCKCWIADNRPSVEFHERTKNHKENVAKR", "abundance fitness": "-0.123 ± 0.089"}
{"variant": "QPKKFCDYCKCWIADNRPSVEFHERRKNHKENVAKR", "abundance fitness": "-0.228 ± 0.059"}
{"variant": "QPKKFCDYCKCWIADNRPSVEFHERAKNHKENVAKR", "abundance fitness": "-0.072 ± 0.058"}
{"variant": "QPKKFCDYCKCWIADNRPSVEFHERIKNHKENVAKR", "abundance fitness": "-1 ± 0.28"}
{"variant": "QPKKFCDYCKCWIADNRPSVEFHERVKNHKENVAKR", "abundance fitness": "-0.18 ± 0.068"}
{"variant": "QPKKFCDYCKCWIADNRPSVEFHERGKCHKENVAKR", "abundance fitness": "-0.097 ± 0.2"}
{"variant": "QPKKFCDYCKCWIADNRPSVEFHERGKMHKENVAKR", "abundance fitness": "0.326 ± 0.16"}
{"variant": "QPKKFCDYCKCWIADNRPSVEFHERGKVHKENVAKR", "abundance fitness": "-0.016 ± 0.088"}
{"variant": "QPKKFCDYCKCWIADNRPSVEFHERGKEHKENVAKR", "abundance fitness": "-0.015 ± 0.078"}
{"variant": "QPKKFCDYCKCWIADNRPSVENHERGKNHKENVAKR", "abundance fitness": "-0.035 ± 0.17"}
{"variant": "QPKKFCDYCKCWIADNRPSVEGHERGKNHKENVAKR", "abundance fitness": "0.111 ± 0.059"}
{"variant": "QPKKFCDYCKCWIADNRPSVETHERGKNHKENVAKR", "abundance fitness": "0.163 ± 0.074"}
{"variant": "QPKKFCDYCKCWIADNRPSVELHERGKNHKENVAKR", "abundance fitness": "0.051 ± 0.073"}
{"variant": "QPKKFCDYCKCWIADNRPSVEIHERGKNHKENVAKR", "abundance fitness": "-0.33 ± 0.14"}
{"variant": "QPKKFCDYCKCWIADNRPSVEFHARGKNHKENVAKR", "abundance fitness": "-0.303 ± 0.072"}
{"variant": "QPKKFCDYCKCWIADNRPSVEFHDRGKNHKENVAKR", "abundance fitness": "-0.372 ± 0.15"}
{"variant": "QPKKFCDYCKCWIADNRPSVEFHPRGKNHKENVAKR", "abundance fitness": "-0.915 ± 0.091"}
{"variant": "QPKKFCDYCKCWICDNRPSVEFHERGKNHKENVAKR", "abundance fitness": "-0.169 ± 0.1"}
{"variant": "QPKKFCDYCKCWISDNRPSVEFHERGKNHKENVAKR", "abundance fitness": "-0.343 ± 0.082"}
{"variant": "QPKKFCDYCKCWIRDNRPSVEFHERGKNHKENVAKR", "abundance fitness": "-0.381 ± 0.07"}
{"variant": "QPKKFCDRCKCWIADNRPSVEFHERGKNHKENVAKR", "abundance fitness": "-0.12 ± 0.062"}
{"variant": "QPKKFCDSCKCWIADNRPSVEFHERGKNHKENVAKR", "abundance fitness": "-0.448 ± 0.19"}
{"variant": "QPKKFCDLCKCWIADNRPSVEFHERGKNHKENVAKR", "abundance fitness": "-0.26 ± 0.1"}
{"variant": "QPKKFCDECKCWIADNRPSVEFHERGKNHKENVAKR", "abundance fitness": "0.048 ± 0.096"}
{"variant": "QPKKFCDDCKCWIADNRPSVEFHERGKNHKENVAKR", "abundance fitness": "0.129 ± 0.15"}
{"variant": "QPKKFCDYCKCWIADNCPSVEFHERGKNHKENVAKR", "abundance fitness": "0.118 ± 0.099"}
{"variant": "QPKKFCDYCKCWIADNAPSVEFHERGKNHKENVAKR", "abundance fitness": "0.036 ± 0.063"}
{"variant": "QPKKFCDYCKCWIADNEPSVEFHERGKNHKENVAKR", "abundance fitness": "-0.011 ± 0.067"}
{"variant": "QPKKFCDYCKCWIADNYPSVEFHERGKNHKENVAKR", "abundance fitness": "-0.235 ± 0.11"}
{"variant": "QPKKFCDYCKCWIADNHPSVEFHERGKNHKENVAKR", "abundance fitness": "-0.148 ± 0.14"}
{"variant": "QPKKFCDYCKCWIADNMPSVEFHERGKNHKENVAKR", "abundance fitness": "0.176 ± 0.085"}
{"variant": "QPKKFCDYCKCWIADNRPSVEFHERGKNHKEPVAKR", "abundance fitness": "-0.473 ± 0.32"}
{"variant": "QPKKFCDYCKCWIADNRPSVEFHERGKNHKEDVAKR", "abundance fitness": "-0.49 ± 0.23"}
{"variant": "QPKKFCDYCKCWIADNRPSVEFHERGKNHKETVAKR", "abundance fitness": "-0.142 ± 0.13"}
{"variant": "QPKKFCDYCKCWIADNRPSVEFHERGKNHKEWVAKR", "abundance fitness": "-0.115 ± 0.079"}
{"variant": "QPKKFCDYCKCWIADNRPSVEFHERGKNHKEQVAKR", "abundance fitness": "0.035 ± 0.1"}
{"variant": "QTKKFCDYCKCWIADNRPSVEFHERGKNHKENVAKR", "abundance fitness": "0.109 ± 0.11"}
{"variant": "QCKKFCDYCKCWIADNRPSVEFHERGKNHKENVAKR", "abundance fitness": "-0.839 ± 0.18"}
{"variant": "QAKKFCDYCKCWIADNRPSVEFHERGKNHKENVAKR", "abundance fitness": "0.007 ± 0.075"}
{"variant": "SPKKFCDYCKCWIADNRPSVEFHERGKNHKENVAKR", "abundance fitness": "-0.651 ± 0.11"}
{"variant": "EPKKFCDYCKCWIADNRPSVEFHERGKNHKENVAKR", "abundance fitness": "-0.941 ± 0.12"}
{"variant": "VPKKFCDYCKCWIADNRPSVEFHERGKNHKENVAKR", "abundance fitness": "-0.257 ± 0.094"}
{"variant": "MPKKFCDYCKCWIADNRPSVEFHERGKNHKENVAKR", "abundance fitness": "-0.242 ± 0.075"}
{"variant": "QPKKFGDYCKCWIADNRPSVEFHERGKNHKENVAKR", "abundance fitness": "-1.07 ± 0.062"}
{"variant": "QPKKFSDYCKCWIADNRPSVEFHERGKNHKENVAKR", "abundance fitness": "-0.615 ± 0.077"}
{"variant": "QPKKFMDYCKCWIADNRPSVEFHERGKNHKENVAKR", "abundance fitness": "-0.654 ± 0.09"}
